This assay deals with tumor necrosis factor alpha (TNF-α) protein. Kind of assay: ELISA: plate coated with 2 µg/ml TNF-α, FITC-labeled peptide titrated, HRP anti-FITC antibody, OD 410 nm, fitted in GraphPad Prism 5. For orientation: In an ELISA, binding on a coated surface is turned into a signal by an enzyme label.

Where no end group is shown, it is not given here.

Sequence of tumor necrosis factor alpha (TNF-α) protein (chain, as listed by the source): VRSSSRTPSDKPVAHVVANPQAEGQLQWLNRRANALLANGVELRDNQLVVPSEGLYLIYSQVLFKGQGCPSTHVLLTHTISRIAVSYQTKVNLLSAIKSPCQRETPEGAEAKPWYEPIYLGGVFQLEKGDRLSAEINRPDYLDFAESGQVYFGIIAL

B1: peptide 632 (peptide)
peptide: HYIDFRW
modifications: also: FITC label, place not given here
notes: Chemically synthesized peptide; It was used in the ELISA as the FITC-labeled peptide; also called TNF-α antagonist peptide; antagonist peptide
In general, Kd refers to the concentration at which binding is half-saturated. Read a low Kd as a tighter complex. Molecule B1 returned a Kd of 138 nM.

For the origin of these results see patent US20230192768A1 (published 2023).
